One block for each molecule: values may come before it.
How the values were obtained:
[1] = target: T1, GST-tagged recombinant SLK (Mus musculus, UniProt O54988); assay: Recombinant SLK kinase assay on histone H1; assay type: biochemical, murine; conditions: recombinant His-tagged Ldb added to GST-SLK, substrate histone H1
T1 construct: GST (N); made in house; host or cells: bacteria (IPTG-induced, pGEX vector)
From the text: (a-left panel) MEFs obtained from floxed-Ldb1 mice were generated and infected with recombinant adenovirus harbouring a GFP or Cre recombinase cDNA. […] (right panel) SLK was immunoprecipitated from lysates obtained from Ad-GFP or Ad-Cre infected cells. SLK precipitation efficiency and kinase activity was consistently greater in lysates from Cre-infected cells. In addition, Ldb2 association with the SLK complex was lost in cells lacking Ldb1 (bottom panel). (b) Ldb2 interacts with SLK kinase domain and ATH. […] (c) Ldb1/2 inhibit SLK kinase activity in vitro. Recombinant GST-tagged SLK was prepared and mixed with recombinant His-tagged Ldb2 (lane 2), His-tagged Ldb1 (lane 3) or both (lane 4) and assayed for kinase activity on histone H1. Addition of recombinant Ldb proteins inhibited SLK activity (d) Activation of SLK by scratch wounding is accompanied by a conformational change. Endogenous SLK complexes were immunoprecipitated from unscratched MEFs or 60 min post-wounding and subjected to trypsin digestion. Differential trypsin sensitivity was observed indicative of altered conformation.
Recombinant SLK was prepared by inducing an overnight culture of GST-SLK with IPTG and preparing GST SLK as described above. […]

[2] = target: T2, SLK (Mus musculus, UniProt O54988); assay: In vitro binding assay, GST-SLK fusions with [35S]-labeled Ldb; set-up: species or system murine; conditions: GST pulldown, autoradiography
T2 construct: made in house; host or cells: bacteria (IPTG-induced; pGEX-5X or 4T1)
T2 sequence (O54988 981-1233): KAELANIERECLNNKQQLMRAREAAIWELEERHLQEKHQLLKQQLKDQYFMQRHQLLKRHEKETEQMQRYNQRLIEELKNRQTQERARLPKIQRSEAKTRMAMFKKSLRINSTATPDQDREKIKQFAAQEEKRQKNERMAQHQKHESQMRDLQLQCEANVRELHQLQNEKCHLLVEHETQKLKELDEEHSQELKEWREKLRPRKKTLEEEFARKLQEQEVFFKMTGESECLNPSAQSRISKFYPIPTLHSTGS
Method: (§1) GST fusion proteins were generated by induction of bacterial cultures with 1 mM isopropyl-beta-D-thiogalactopyranoside (IPTG, Sigma) for 2 hours. Bacteria were pelleted, resuspended in 1 ml bacterial lysis buffer (20% sucrose, 10% glycerol, 50 mM Tris-HCl pH 8.0, 2 mM MgCl2, 2 mM DTT, 10 μg/ml leupeptin, 10 μg/ml pepstatin, 10 μg/ml aprotinin, 1 mM phenylmethylsulphonylfluoride [PMSF] and 100 μM benzamidine) and sonicated on ice.
(§2) Glutathione sepharose beads (Amersham Pharmacia) were added to the cleared supernatants and bound GST fusions were collected by centrifugation, washed three times with NETN and subjected to binding assays. In vitro translated proteins were generated using the TNT quick coupled in vitro transcription translation kit (Promega) according to the manufacturer's instructions. Translated proteins were incubated with either GST or GST fusions in NETN buffer, washed with NETN and eluted from the beads by boiling in sample buffer. Proteins were fractionated by SDS-PAGE, the gels were stained with Coomassie brilliant blue (Sigma) to visualize the proteins, destained (30% methanol, 10% acetic acid), dried and subjected to autoradiography.

[3] = system: α-tubulin; assay: GST pulldown binding to α-tubulin; conditions: in vitro
From the text: Co-localization of Rac1 (d), Paxillin (e) and Ldb1 (f) with SLK (a-c) in membrane ruffles of migrating fibroblasts on fibronectin (arrowhead). Note the absence of SLK in mature adhesions identified by Paxillin staining (e; arrow). […] (m) Ldb2 binds α-tubulin.

[4] = target: T3, SLK (Mus musculus, UniProt O54988); assay: In vitro binding assay, GST-SLK fusions with [35S]-labeled Ldb; set-up: species or system murine; conditions: carboxy-terminal deletion lacking the latter two thirds of the ATH domain
T3 construct: made in house; host or cells: bacteria (IPTG-induced; pGEX-5X or 4T1)
Method: as §1, §2
T3 sequence (O54988 1-950 isoform O54988-2): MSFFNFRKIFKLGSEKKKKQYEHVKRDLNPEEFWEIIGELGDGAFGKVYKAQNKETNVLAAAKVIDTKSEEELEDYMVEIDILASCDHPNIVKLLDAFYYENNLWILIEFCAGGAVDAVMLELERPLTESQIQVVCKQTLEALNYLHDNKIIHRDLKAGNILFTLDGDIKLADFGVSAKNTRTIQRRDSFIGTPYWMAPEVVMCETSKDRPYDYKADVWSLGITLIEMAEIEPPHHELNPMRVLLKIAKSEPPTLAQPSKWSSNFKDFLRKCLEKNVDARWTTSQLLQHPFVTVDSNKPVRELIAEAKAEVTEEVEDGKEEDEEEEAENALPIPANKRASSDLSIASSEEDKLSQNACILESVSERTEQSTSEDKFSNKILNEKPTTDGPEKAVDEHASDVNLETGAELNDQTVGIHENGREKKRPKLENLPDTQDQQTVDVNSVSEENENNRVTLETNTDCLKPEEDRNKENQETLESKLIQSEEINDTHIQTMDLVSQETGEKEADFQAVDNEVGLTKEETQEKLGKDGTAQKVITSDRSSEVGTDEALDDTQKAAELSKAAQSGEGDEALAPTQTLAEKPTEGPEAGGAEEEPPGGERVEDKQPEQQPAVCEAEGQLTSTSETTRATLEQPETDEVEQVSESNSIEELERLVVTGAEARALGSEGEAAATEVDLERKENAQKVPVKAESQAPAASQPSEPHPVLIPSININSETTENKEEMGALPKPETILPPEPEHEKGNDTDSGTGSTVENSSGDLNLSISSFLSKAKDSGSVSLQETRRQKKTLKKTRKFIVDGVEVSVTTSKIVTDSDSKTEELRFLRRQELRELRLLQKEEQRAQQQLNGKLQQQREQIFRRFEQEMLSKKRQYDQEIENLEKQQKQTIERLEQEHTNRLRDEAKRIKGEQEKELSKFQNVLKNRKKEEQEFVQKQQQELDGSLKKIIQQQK

[5] = system: SLK; assay: as above; set-up: species or system murine; conditions: deletions lacking the ATH domain, prolonged exposures
Method: as §1, §2

T1 sequence (O54988 1-1202 isoform O54988-2): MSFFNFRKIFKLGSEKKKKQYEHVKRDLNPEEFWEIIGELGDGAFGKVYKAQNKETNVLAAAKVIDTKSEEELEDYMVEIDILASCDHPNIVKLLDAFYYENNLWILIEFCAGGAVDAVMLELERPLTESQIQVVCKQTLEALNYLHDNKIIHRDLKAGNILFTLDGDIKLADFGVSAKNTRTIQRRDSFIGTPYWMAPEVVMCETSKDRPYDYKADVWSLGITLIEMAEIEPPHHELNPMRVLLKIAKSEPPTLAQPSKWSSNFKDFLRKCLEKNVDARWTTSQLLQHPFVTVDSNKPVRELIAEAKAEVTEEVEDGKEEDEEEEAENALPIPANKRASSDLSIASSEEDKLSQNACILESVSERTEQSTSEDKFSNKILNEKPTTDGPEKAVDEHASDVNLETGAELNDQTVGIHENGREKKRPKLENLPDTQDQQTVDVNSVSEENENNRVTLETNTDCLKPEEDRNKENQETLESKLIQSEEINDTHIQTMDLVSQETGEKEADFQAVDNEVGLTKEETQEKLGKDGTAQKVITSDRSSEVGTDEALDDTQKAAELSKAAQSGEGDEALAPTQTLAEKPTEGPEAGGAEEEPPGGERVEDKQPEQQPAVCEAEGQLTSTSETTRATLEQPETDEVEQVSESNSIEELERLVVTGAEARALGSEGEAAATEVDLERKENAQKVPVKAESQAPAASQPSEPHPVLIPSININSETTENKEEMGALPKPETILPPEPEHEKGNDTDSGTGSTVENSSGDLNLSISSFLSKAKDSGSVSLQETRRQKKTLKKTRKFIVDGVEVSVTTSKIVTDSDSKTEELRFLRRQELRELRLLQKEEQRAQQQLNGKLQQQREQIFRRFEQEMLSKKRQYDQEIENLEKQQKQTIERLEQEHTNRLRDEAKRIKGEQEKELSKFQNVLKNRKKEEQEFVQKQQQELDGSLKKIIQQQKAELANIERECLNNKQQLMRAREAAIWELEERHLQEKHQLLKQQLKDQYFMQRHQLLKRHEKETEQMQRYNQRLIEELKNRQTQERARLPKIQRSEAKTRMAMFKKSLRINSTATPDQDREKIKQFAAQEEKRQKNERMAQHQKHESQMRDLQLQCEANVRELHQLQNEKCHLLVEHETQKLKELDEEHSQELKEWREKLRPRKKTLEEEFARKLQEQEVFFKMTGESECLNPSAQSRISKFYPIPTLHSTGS

binding to SLK ATH domain (SLK 950-1202) [2]: indistinguishable from Ldb2
binding to α-tubulin [3]: not
B1: Ldb1: LIM domain binding transcription co-factor; recombinant His-tagged or in vitro translated protein, SLK binding partner (protein)
chain: MLDRDVGPTPMYPPTYLEPGIGRHTPYGNQTDYRIFELNKRLQNWTEECDNLWWDAFTTEFFEDDAMLTITFCLEDGPKRYTIGRTLIPRYFRSIFEGGATELYYVLKHPKEAFHSNFVSLDCDQGSMVTQHGKPMFTQVCVEGRLYLEFMFDDMMRIKTWHFSIRQHRELIPRSILAMHAQDPQMLDQLSKNITRCGLSNSTLNYLRLCVILEPMQELMSRHKTYSLSPRDCLKTCLFQKWQRMVAPPAEPARQQPSKRRKRKMSGGSTMSSGGGNTNNSNSKKKSPASTFALSSQVPDVMVVGEPTLMGGEFGDEDERLITRLENTQFDAANGIDDEDSFNNSPALGANSPWNSKPPSSQESKSENPTSQASQ
modifications: left off: large carriers
SLK kinase activity [1]: reduced SLK activity

binding to SLK 1-950 [4]: moderate affinity
binding to SLK ATH domain (SLK 950-1202) [2]: highest affinity
binding to GST-SLK-1-551, GST-SLK-1-373 [5]: weak binding
binding to α-tubulin [3]: found to bind α-tubulin in vitro
B2: Ldb2: LIM domain binding transcription co-factor, paralog of Ldb1; recombinant His-tagged or in vitro translated protein (protein)
chain: MSSTPHDPFYSSPFGPFYRRHTPYMVQPEYRIYEMNKRLQSRTEDSDNLWWDAFATEFFEDDATLTLSFCLEDGPKRYTIGRTLIPRYFSTVFEGGVTDLYYILKHSKESYHNSSITVDCDQCAMVTQHGKPMFTKVCTEGRLILEFTFDDLMRIKTWHFTIRQYRELVPRSILAMHAQDPQVLDQLSKNITRMGLTNFTLNYLRLCVILEPMQELMSRHKTYNLSPRDCLKTCLFQKWQRMVAPPAEPTRQPTTKRRKRKNSTSSTSNSSAGNTTNSAGSKKKTPAASLSLATQVPDVMVVGEPTLMGGEFGDEDERLITRLENTQYDAANGMDDEEDFNNSPALGNNSPWNSKPPATQETKSENAPPQASQ
modifications: left off: large carriers
notes: recombinant His-tagged or in vitro translated protein
SLK kinase activity [1]: reduced SLK activity
